Sequences and labels used below:
B1: AXIN1 peptide 235-250 (Axin-1), 16-mer library wild type / PP2A B56 (PPP2R5A B56 domain, residues 1-486) (parent complex)
chain 1: SGYLPTLNEDEEWKAD
chain 2: not shown
B2: SH3BP2 peptide 410-425 (SH3 domain-binding protein 2), 16-mer library wild type / TNKS ANK (TNKS 12 ANK repeats, residues 174-649) (parent complex)
chain 1: LPHLQRSPPDGQSFRS
chain 2: TGVPAVSGALRELLEACRNGDVSRVKRLVDAANVNAKDMAGRKSSPLHFAAGFGRKDVVEHLLQMGANVHARDDGGLIPLHNACSFGHAEVVSLLLCQGADPNARDNWNYTPLHEAAIKGKIDVCIVLLQHGADPNIRNTDGKSALDLADPSAKAVLTGEYKKDELLEAARSGNEEKLMALLTPLNVNCHASDGRKSTPLHLAAGYNRVRIVQLLLQHGADVHAKDKGGLVPLHNACSYGHYEVTELLLKHGACVNAMDLWQFTPLHEAASKNRVEVCSLLLSHGADPTLVNCHGKSAVDMAPTPELRERLTYEFKGHSLLQAAREADLAKVKKTLALEIINFKQPQSHETALHCAVASLHPKRKQVTELLLRKGANVNEKNKDFMTPLHVAAERAHNDVMEVLHKHGAKMNALDTLGQTALHRAALAGHLQTCRLLLSYGSDPSIISLQGFTAAQMGNEAVQQILSESTPIRTSD

This is an account of results in article PMC12102759 (2025).

In one test the parent is B1. Kind of test: proteomic peptide phage display deep mutational scan (ProP-PD DMS): M13 P8 16-mer library selected against immobilised GST-tagged bait for four days (rounds), NGS of the eluted pools per day and pseudo-replica; bait immobilised on MaxiSorp plates (10 µg), library pre-cleared on GST, 2 h binding at 4 °C, five washes; one round per day, days 1-4; value from days 2 and 3.
In the case of chain 1 K14W, the screen value was 0.00219 average fractional NGS count over selection days 2 and 3 (reads of this peptide / all reads for the bait, averaged over ….
chain 1 K14N: the screen value is 0.000231 average fractional NGS count over selection days 2 and 3 (reads of this peptide / all reads for the bait, averaged over ….
Consider chain 1 K14F, for which the screen value was 0.00121 average fractional NGS count over selection days 2 and 3 (reads of this peptide / all reads for the bait, averaged over ….
Same read-out and setting: the figure for chain 1 K14H is 0.00281 average fractional NGS count over selection days 2 and 3 (reads of this peptide / all reads for the bait, averaged over ….
The same measure, in the same setting: to chain 1 K14G belongs 0.00056 average fractional NGS count over selection days 2 and 3 (reads of this peptide / all reads for the bait, averaged over …; to chain 1 K14Y, 0.00389 average fractional NGS count over selection days 2 and 3 (reads of this peptide / all reads for the bait, averaged over ….
In the case of chain 1 K14Q, the screen value was 0.00109 average fractional NGS count over selection days 2 and 3 (reads of this peptide / all reads for the bait, averaged over ….
For the variant chain 1 K14M, the screen value was 0.000958 average fractional NGS count over selection days 2 and 3 (reads of this peptide / all reads for the bait, averaged over ….
On the same count and under the same terms, to chain 1 K14T belongs 0.000943 average fractional NGS count over selection days 2 and 3 (reads of this peptide / all reads for the bait, averaged over ….
On the same count and under the same terms, to chain 1 K14D belongs 0.000812 average fractional NGS count over selection days 2 and 3 (reads of this peptide / all reads for the bait, averaged over ….
chain 1 K14P: the screen value is 0.000647 average fractional NGS count over selection days 2 and 3 (reads of this peptide / all reads for the bait, averaged over ….
As to chain 1 K14L, the screen value was 0.00437 average fractional NGS count over selection days 2 and 3 (reads of this peptide / all reads for the bait, averaged over ….
Regarding chain 1 D16N, the screen value was 0.000396 average fractional NGS count over selection days 2 and 3 (reads of this peptide / all reads for the bait, averaged over ….
The same measure, in the same setting: the figure for chain 1 D16W is 0.000506 average fractional NGS count over selection days 2 and 3 (reads of this peptide / all reads for the bait, averaged over …; for chain 1 D16L it is 0.000211 average fractional NGS count over selection days 2 and 3 (reads of this peptide / all reads for the bait, averaged over …; for chain 1 D16Y it is 0.00243 average fractional NGS count over selection days 2 and 3 (reads of this peptide / all reads for the bait, averaged over ….
On to chain 1 D16G, for which the screen value is 0.000202 average fractional NGS count over selection days 2 and 3 (reads of this peptide / all reads for the bait, averaged over ….
As for chain 1 D16E, the screen value was 0.000288 average fractional NGS count over selection days 2 and 3 (reads of this peptide / all reads for the bait, averaged over ….
Same read-out and setting: to chain 1 D16M belongs 0.00821 average fractional NGS count over selection days 2 and 3 (reads of this peptide / all reads for the bait, averaged over ….
For the variant chain 1 D16I, the screen value is 0.000497 average fractional NGS count over selection days 2 and 3 (reads of this peptide / all reads for the bait, averaged over ….
As to chain 1 D16V, the screen value was 0.00077 average fractional NGS count over selection days 2 and 3 (reads of this peptide / all reads for the bait, averaged over ….
Same read-out and setting: to chain 1 D16P belongs 0.000234 average fractional NGS count over selection days 2 and 3 (reads of this peptide / all reads for the bait, averaged over …; to chain 1 D16H, 0.0014 average fractional NGS count over selection days 2 and 3 (reads of this peptide / all reads for the bait, averaged over …; to chain 1 D10H, 0.000355 average fractional NGS count over selection days 2 and 3 (reads of this peptide / all reads for the bait, averaged over ….
In the case of chain 1 D10V, the screen value was 0.00335 average fractional NGS count over selection days 2 and 3 (reads of this peptide / all reads for the bait, averaged over ….
Same read-out and setting: the figure for chain 1 D10L is 0.000595 average fractional NGS count over selection days 2 and 3 (reads of this peptide / all reads for the bait, averaged over …; for chain 1 D10F it is 0.000124 average fractional NGS count over selection days 2 and 3 (reads of this peptide / all reads for the bait, averaged over ….
As for chain 1 D10A, the screen value is 0.00348 average fractional NGS count over selection days 2 and 3 (reads of this peptide / all reads for the bait, averaged over ….
The same measure, in the same setting: the figure for chain 1 D10T is 0.000731 average fractional NGS count over selection days 2 and 3 (reads of this peptide / all reads for the bait, averaged over …; for chain 1 D10M it is 0.00104 average fractional NGS count over selection days 2 and 3 (reads of this peptide / all reads for the bait, averaged over ….

The variants in a further test derive from B2. The test is described as above.
As for chain 1 QPHLQRSPPDGQSFRS [chain 1 L1Q], the screen value is 0.00289 average fractional NGS count over selection days 2 and 3 (reads of this peptide / all reads for the bait, averaged over ….
The same measure, in the same setting: to chain 1 TPHLQRSPPDGQSFRS [chain 1 L1T] belongs 0.0011 average fractional NGS count over selection days 2 and 3 (reads of this peptide / all reads for the bait, averaged over ….
Take chain 1 LPHAQRSPPDGQSFRS [chain 1 L4A]: the screen value was 0.00506 average fractional NGS count over selection days 2 and 3 (reads of this peptide / all reads for the bait, averaged over ….
Still for that read-out and setting: the figure for chain 1 LQHLQRSPPDGQSFRS [chain 1 P2Q] is 0.000644 average fractional NGS count over selection days 2 and 3 (reads of this peptide / all reads for the bait, averaged over …; for chain 1 LNHLQRSPPDGQSFRS [chain 1 P2N] it is 0.000461 average fractional NGS count over selection days 2 and 3 (reads of this peptide / all reads for the bait, averaged over …; for chain 1 LIHLQRSPPDGQSFRS [chain 1 P2I] it is 0.000822 average fractional NGS count over selection days 2 and 3 (reads of this peptide / all reads for the bait, averaged over ….
In the case of chain 1 LVHLQRSPPDGQSFRS [chain 1 P2V], the screen value is 0.00125 average fractional NGS count over selection days 2 and 3 (reads of this peptide / all reads for the bait, averaged over ….
In the case of chain 1 LSHLQRSPPDGQSFRS [chain 1 P2S], the screen value is 0.000402 average fractional NGS count over selection days 2 and 3 (reads of this peptide / all reads for the bait, averaged over ….
Regarding chain 1 LPHLQRSPPDGQSWRS [chain 1 F14W], the screen value was 0.00225 average fractional NGS count over selection days 2 and 3 (reads of this peptide / all reads for the bait, averaged over ….
On the same count and under the same terms, the figure for chain 1 LPHLQRSPPDGQSYRS [chain 1 F14Y] is 0.00865 average fractional NGS count over selection days 2 and 3 (reads of this peptide / all reads for the bait, averaged over ….
Still for that read-out and setting: the figure for chain 1 LPHLQRSPPDGKSFRS [chain 1 Q12K] is 0.000431 average fractional NGS count over selection days 2 and 3 (reads of this peptide / all reads for the bait, averaged over …; for chain 1 LPHLQRSPPDGNSFRS [chain 1 Q12N] it is 0.00115 average fractional NGS count over selection days 2 and 3 (reads of this peptide / all reads for the bait, averaged over …; for chain 1 LPHLQRSPPDGLSFRS [chain 1 Q12L] it is 0.00741 average fractional NGS count over selection days 2 and 3 (reads of this peptide / all reads for the bait, averaged over ….
For the variant chain 1 LPHLQRSPPDGHSFRS [chain 1 Q12H], the screen value was 0.0118 average fractional NGS count over selection days 2 and 3 (reads of this peptide / all reads for the bait, averaged over ….
On the same count and under the same terms, to chain 1 LPPLQRSPPDGQSFRS [chain 1 H3P] belongs 0.000298 average fractional NGS count over selection days 2 and 3 (reads of this peptide / all reads for the bait, averaged over ….
As for chain 1 LPTLQRSPPDGQSFRS [chain 1 H3T], the screen value was 0.000309 average fractional NGS count over selection days 2 and 3 (reads of this peptide / all reads for the bait, averaged over ….
With chain 1 LPALQRSPPDGQSFRS [chain 1 H3A], the screen value is 0.000153 average fractional NGS count over selection days 2 and 3 (reads of this peptide / all reads for the bait, averaged over ….
On the same count and under the same terms, to chain 1 LPELQRSPPDGQSFRS [chain 1 H3E] belongs 0.000323 average fractional NGS count over selection days 2 and 3 (reads of this peptide / all reads for the bait, averaged over …; to chain 1 LPLLQRSPPDGQSFRS [chain 1 H3L], 0.000556 average fractional NGS count over selection days 2 and 3 (reads of this peptide / all reads for the bait, averaged over …; to chain 1 LPHLQRSPGDGQSFRS [chain 1 P9G], 0.000695 average fractional NGS count over selection days 2 and 3 (reads of this peptide / all reads for the bait, averaged over ….
Regarding chain 1 LPHLQRSPPDGQDFRS [chain 1 S13D], the screen value is 0.00033 average fractional NGS count over selection days 2 and 3 (reads of this peptide / all reads for the bait, averaged over ….
Still for that read-out and setting: to chain 1 LPHLQRSPPDGQTFRS [chain 1 S13T] belongs 0.00243 average fractional NGS count over selection days 2 and 3 (reads of this peptide / all reads for the bait, averaged over …; to chain 1 LPHLQRSPPDGQGFRS [chain 1 S13G], 0.00038 average fractional NGS count over selection days 2 and 3 (reads of this peptide / all reads for the bait, averaged over ….
Still for that read-out and setting: to chain 1 LPHLQRSPPDGQMFRS [chain 1 S13M] belongs 0.00197 average fractional NGS count over selection days 2 and 3 (reads of this peptide / all reads for the bait, averaged over …; to chain 1 LPHLQRSPPDGQQFRS [chain 1 S13Q], 0.00224 average fractional NGS count over selection days 2 and 3 (reads of this peptide / all reads for the bait, averaged over ….
Consider chain 1 LPHLQRSPPDGQLFRS [chain 1 S13L], for which the screen value was 0.00144 average fractional NGS count over selection days 2 and 3 (reads of this peptide / all reads for the bait, averaged over ….
Still for that read-out and setting: to chain 1 LPHLPRSPPDGQSFRS [chain 1 Q5P] belongs 0.000217 average fractional NGS count over selection days 2 and 3 (reads of this peptide / all reads for the bait, averaged over …; to chain 1 LPHLVRSPPDGQSFRS [chain 1 Q5V], 0.001 average fractional NGS count over selection days 2 and 3 (reads of this peptide / all reads for the bait, averaged over ….
On the same count and under the same terms, the figure for chain 1 LPHLDRSPPDGQSFRS [chain 1 Q5D] is 0.00109 average fractional NGS count over selection days 2 and 3 (reads of this peptide / all reads for the bait, averaged over ….
With chain 1 LPHLKRSPPDGQSFRS [chain 1 Q5K], the screen value is 0.0003 average fractional NGS count over selection days 2 and 3 (reads of this peptide / all reads for the bait, averaged over ….
Same read-out and setting: the figure for chain 1 LPHLQRSEPDGQSFRS [chain 1 P8E] is 0.00169 average fractional NGS count over selection days 2 and 3 (reads of this peptide / all reads for the bait, averaged over ….
On the same count and under the same terms, the figure for chain 1 LPHLQRSAPDGQSFRS [chain 1 P8A] is 0.00935 average fractional NGS count over selection days 2 and 3 (reads of this peptide / all reads for the bait, averaged over ….
Still for that read-out and setting: to chain 1 LPHLQRSIPDGQSFRS [chain 1 P8I] belongs 0.00231 average fractional NGS count over selection days 2 and 3 (reads of this peptide / all reads for the bait, averaged over …; to chain 1 LPHLQRKPPDGQSFRS [chain 1 S7K], 0.00104 average fractional NGS count over selection days 2 and 3 (reads of this peptide / all reads for the bait, averaged over …; to chain 1 LPHLQRIPPDGQSFRS [chain 1 S7I], 0.000719 average fractional NGS count over selection days 2 and 3 (reads of this peptide / all reads for the bait, averaged over ….
For the variant chain 1 LPHLQREPPDGQSFRS [chain 1 S7E], the screen value was 0.00893 average fractional NGS count over selection days 2 and 3 (reads of this peptide / all reads for the bait, averaged over ….
Still for that read-out and setting: to chain 1 LPHLQRDPPDGQSFRS [chain 1 S7D] belongs 0.000477 average fractional NGS count over selection days 2 and 3 (reads of this peptide / all reads for the bait, averaged over …; to chain 1 LPHLQRTPPDGQSFRS [chain 1 S7T], 0.00126 average fractional NGS count over selection days 2 and 3 (reads of this peptide / all reads for the bait, averaged over …; to chain 1 LPHLQRSPPTGQSFRS [chain 1 D10T], 0.000156 average fractional NGS count over selection days 2 and 3 (reads of this peptide / all reads for the bait, averaged over ….
